In patent US20230406921A1 (MABWELL SHANGHAI BIOSCIENCE, published 2023):
Blank lines part the entries; values can stand above or below the binder they belong to.

Columns and labels:
[1] = biological target: T1, CD47 on the surface of tumor cells (human, UniProt Q08722 19-323); assay: flow cytometry on A431 cells
T1 construct: whole, on cells; Same protein as m4; also called CD47 antigen on the surface of U937 and CCRF cells; SKOV-3

[2] = biological target: T1, CD47 on the surface of tumor cells; assay: FACS blocking assay on U937 cells; blocked ligand FITC-labelled rhSIRPα-Fc
[3] = biological target: T1, CD47 on the surface of tumor cells; assay: FACS on U937 cells
[4] = biological target: T2, recombinant antigen of the extracellular region of CD47 (Sino Biological, Cat: 12283-H08H) (human, UniProt Q08722 19-139); assay: Fortebio BLI, recombinant CD47 extracellular region
T2 construct: extracellular domain; also called recombinant CD47 extracellular region; CD47 recombinant protein

[5] = biological target: T2, recombinant antigen of the …; assay: Fortebio Octet QKe, antibody on AHC sensor, CD47 100 nM in solution
Method: The affinity of the antibody was determined by Octet QKe instrument of Fortebio Company. […] The kinetic parameters were determined.

[6] = biological target: T1, CD47 on the surface of tumor cells; assay: FACS blocking assay on CCRF cells; blocked ligand FITC-labelled rhSIRPα-Fc
[7] = biological target: T1, CD47 on the surface of tumor cells; assay: FACS on CCRF cells
CD47-His = biological target: T3, CD47-His (human, UniProt Q08722 19-139, limits assumed); assay: Fortebio BLI
T3 construct: not shown: His tag

human PD-L1 on cells = biological target: T4, human PD-L1 on cells (human, UniProt Q9NZQ7 19-290); assay: flow cytometry on A431 cells
T4 construct: whole, on cells; also called MC38-hPD-L1/hCD47 cells; A431 cells

[8] = biological target: T5, CD47 on the surface of human red blood cells (human, UniProt Q08722 19-323); assay: FACS, hRBC, 500 nM
T5 construct: whole, on cells; Same protein as m3, on red blood cells; also called hRBC; RBC
Method: (§1) The difference between the binding of the mutant to CD47 on the surface of tumor cells and CD47 on the surface of red blood cells was evaluated.

[9] = biological target: T1, CD47 on the surface of tumor cells; assay: FACS, tumor cells, 1 nM
Method: as §1

[10] = biological target: T5, CD47 on the surface of human red blood …; assay: FACS, human red blood cells, antibody 1000 nM
Method: (§2) In the experiment of analyzing the binding to human red blood cells, the antibody was used at a concentration of 1000 nM; and in the experiment of analyzing the binding to tumor cells, the antibody was used at a concentration of 100 nM.

[11] = biological target: T1, CD47 on the surface of tumor cells; assay: FACS, SKOV-3 tumor cells (no PD-L1), antibody 100 nM
Method: as §2

PD-L1 = PD-L1 (human, UniProt Q9NZQ7 19-239, limits assumed); assay: Fortebio BLI
[12] = biological target: T2, recombinant antigen of the …; assay: Fortebio BLI

Sequence of PD-L1 (Q9NZQ7 19-239 limits assumed): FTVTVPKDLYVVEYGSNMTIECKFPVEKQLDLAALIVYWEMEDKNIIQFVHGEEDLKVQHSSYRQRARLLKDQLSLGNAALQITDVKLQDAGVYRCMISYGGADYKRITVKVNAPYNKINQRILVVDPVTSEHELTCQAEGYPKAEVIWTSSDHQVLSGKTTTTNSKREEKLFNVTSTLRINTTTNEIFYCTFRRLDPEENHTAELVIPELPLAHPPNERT
T4 sequence (Q9NZQ7 19-290): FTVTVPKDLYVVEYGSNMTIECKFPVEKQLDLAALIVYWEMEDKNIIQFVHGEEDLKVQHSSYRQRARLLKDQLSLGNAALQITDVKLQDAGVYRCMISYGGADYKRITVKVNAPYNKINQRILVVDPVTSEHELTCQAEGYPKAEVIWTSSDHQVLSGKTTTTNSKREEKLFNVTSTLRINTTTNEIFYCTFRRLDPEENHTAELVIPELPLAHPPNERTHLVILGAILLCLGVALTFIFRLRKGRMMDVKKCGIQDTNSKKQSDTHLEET

EC50 (read off the curve) [1]: 2 to 3 nM
B1: 1F8 (antibody, human IgG4, V domains shown)
VH: KVQLVESGGGLVKPGGSLRLSCAASGFTFSNAWMNWVRQAPGKGLEWVGRIKRKTDGETTDYAAPVKGRFSISRDDSKNTLYLQMNSLKTEDTAVYYCAGSNRAFDIWGQGTMVTVSA
VL: DIVMTQSPDSLAVSLGERATINCKSSQSVLYSSNNRNYLAWYQQKPGQPPKLLINQASTRASGVPDRFSGSGSGTEFTLIISSLHAEDVAIYYCQQYYTPPLAFGGGTKLEIK
notes: also called anti-CD47 antibody 1F8; control anti-CD47 monoclonal antibody 1F8

IC50 (read off the curve) [2]: ~0.3 µg/mL | EC50 (read off the curve) [3]: ~0.2 µg/mL | Kd [4]: 0.688 nM | koff [4]: 0.00022 s⁻¹ | kon [4]: 320000 M⁻¹ s⁻¹ | Kd [5]: 1.89 nM | koff [5]: 0.000933 s⁻¹ | kon [5]: 493000 M⁻¹ s⁻¹ | IC50 (read off the curve) [6]: ~0.3 µg/mL | EC50 (read off the curve) [7]: ~0.06 µg/mL | Kd (CD47-His): 1.5 nM | koff (CD47-His): 0.00037 s⁻¹ | kon (CD47-His): 247000 M⁻¹ s⁻¹
B2: humanized 140 (hz140) (antibody, human IgG4 S228P, kappa, V domains shown)
VH: QVQLVQSGAEVKKPGASVKVSCKASGYKFTNYVMHWVRQAPGQRLEWMGYINPYNDGIKYNEKFTGRVTITRDTSASTAYMELSSLRSEDTAVYYCAREGDFYANYGRLGFAYWGQGTLVTVSS
VL: DIQMTQSPSSLSASVGDRVTITCRASQDITNYLNWYQQKPGKAPKLLIYYTSRLHSGVPSRFSGSGSGTDYTFTISSLQPEDIATYFCQQGDTFPRTFGGGTKVEIKR
notes: also called anti-CD47 monoclonal antibody; anti-CD47 sidearm monoclonal antibody

EC50 (read off the curve) (human PD-L1 on cells): ~0.1 nM
B3: anti-PD-L1 monoclonal antibody (hz182) (antibody, human IgG4 S228P, kappa, V domains shown)
VH: QLVQSGAEVKKPGATVKISCKVSGFNIKDIYMHWVQQAPGKGLEWMGRIDPANANTKYDPKFQDRVTITADTSTNTAYMELSSLRSEDTAVYYCASGQLGPLGFDYWGQGTTVTVSS
VL: DIQMTQSPSSLSASVGDRVTITCRASQDISNYLNWYQQKPGKAPKLLLYYTSRLHSGVPSRFSGSGSGTDYTLTISSLQPEDFATYFCQQGAGRPYTFGGGTKVEIKR
notes: also called humanized anti-human PD-L1 antibody; anti-PD-L sidearm monoclonal antibody

FACS (MFI) [8]: 27400 MFI | FACS (MFI) [9]: 102000 MFI
B4: h140Hm13/h140L (antibody, V domains shown)
VH: EVQLVQSGAEVKKPGASVKVSCKASGYKFTNYVMSWVRQAPGQRLEWMGYINPYNDAIKYNEKFTGRVTITRDTSASTAYMELSSLRSEDTAVYYCAREGDFYANYGRLGFAYWGQGTLVTVSS
VL: DIQMTQSPSSLSASVGDRVTITCRASQDITNYLNWYQQKPGKAPKLLIYYTSRLHSGVPSRFSGSGSGTDYTFTISSLQPEDIATYFCQQGDTFPRTFGGGTKVEIK
notes: Heavy chain mutant 140Hm13 with the unmutated light chain of hz140

FACS (MFI) [8]: 16700 MFI | FACS (MFI) [9]: 40200 MFI
B5: h140Hm13/h140Lm7 (antibody, V domains shown)
VH: EVQLVQSGAEVKKPGASVKVSCKASGYKFTNYVMSWVRQAPGQRLEWMGYINPYNDAIKYNEKFTGRVTITRDTSASTAYMELSSLRSEDTAVYYCAREGDFYANYGRLGFAYWGQGTLVTVSS
VL: DIQMTQSPSSLSASVGDRVTITCRASQDITNYLNWYQQKPGKAPKLLIYYTSRLHSGVPSRFSGSGSGTDYTFTISSLQPEDIATYFCQQGDTRPRTFGGGTKVEIK

FACS (MFI) [8]: 17700 MFI | FACS (MFI) [9]: 34600 MFI
B6: h140Hm13/h140Lm9 (antibody, V domains shown)
VH: EVQLVQSGAEVKKPGASVKVSCKASGYKFTNYVMSWVRQAPGQRLEWMGYINPYNDAIKYNEKFTGRVTITRDTSASTAYMELSSLRSEDTAVYYCAREGDFYANYGRLGFAYWGQGTLVTVSS
VL: DIQMTQSPSSLSASVGDRVTITCRASQDITNYLNWYQQKPGKAPKLLIYYTSRLHSGVPSRFSGSGSGTDYTFTISSLQPEDIATYFCQQGAGRPRTFGGGTKVEIK
notes: also called h140Lmut9; mut9

FACS (MFI) [8]: 24200 MFI
B7: h140Hm13/h140Lm4 (antibody, V domains shown)
VH: EVQLVQSGAEVKKPGASVKVSCKASGYKFTNYVMSWVRQAPGQRLEWMGYINPYNDAIKYNEKFTGRVTITRDTSASTAYMELSSLRSEDTAVYYCAREGDFYANYGRLGFAYWGQGTLVTVSS
VL: DIQMTQSPSSLSASVGDRVTITCRASQDITNYLNWYQQKPGKAPKLLIYYTSRLHSGVPSRFSGSGSGTDYTFTISSLQPEDFATYFCQQGDTFPRTFGGGTKVEIK

FACS (MFI) [8]: 27200 MFI
B8: h140Hm13/h140Lm6 (antibody, V domains shown)
VH: EVQLVQSGAEVKKPGASVKVSCKASGYKFTNYVMSWVRQAPGQRLEWMGYINPYNDAIKYNEKFTGRVTITRDTSASTAYMELSSLRSEDTAVYYCAREGDFYANYGRLGFAYWGQGTLVTVSS
VL: DIQMTQSPSSLSASVGDRVTITCRASQDITNYLNWYQQKPGKAPKLLIYYTSRLHSGVPSRFSGSGSGTDYTFTISSLQPEDIATYFCQQGDGFPRTFGGGTKVEIK

FACS (MFI) [8]: 28700 MFI
B9: h140Hm13/h140Lm1 (antibody, V domains shown)
VH: EVQLVQSGAEVKKPGASVKVSCKASGYKFTNYVMSWVRQAPGQRLEWMGYINPYNDAIKYNEKFTGRVTITRDTSASTAYMELSSLRSEDTAVYYCAREGDFYANYGRLGFAYWGQGTLVTVSS
VL: DIQMTQSPSSLSASVGDRVTITCRASQDISNYLNWYQQKPGKAPKLLIYYTSRLHSGVPSRFSGSGSGTDYTFTISSLQPEDIATYFCQQGDTFPRTFGGGTKVEIK
notes: also called h140Lml

FACS (MFI) [8]: 26100 MFI
B10: h140Hm13/h140Lm2 (antibody, V domains shown)
VH: EVQLVQSGAEVKKPGASVKVSCKASGYKFTNYVMSWVRQAPGQRLEWMGYINPYNDAIKYNEKFTGRVTITRDTSASTAYMELSSLRSEDTAVYYCAREGDFYANYGRLGFAYWGQGTLVTVSS
VL: DIQMTQSPSSLSASVGDRVTITCRASQDITNYLNWYQQKPGKAPKLLLYYTSRLHSGVPSRFSGSGSGTDYTFTISSLQPEDIATYFCQQGDTFPRTFGGGTKVEIK

FACS (MFI) [8]: 30600 MFI
B11: h140Hm13/h140Lm3 (antibody, V domains shown)
VH: EVQLVQSGAEVKKPGASVKVSCKASGYKFTNYVMSWVRQAPGQRLEWMGYINPYNDAIKYNEKFTGRVTITRDTSASTAYMELSSLRSEDTAVYYCAREGDFYANYGRLGFAYWGQGTLVTVSS
VL: DIQMTQSPSSLSASVGDRVTITCRASQDITNYLNWYQQKPGKAPKLLIYYTSRLHSGVPSRFSGSGSGTDYTLTISSLQPEDIATYFCQQGDTFPRTFGGGTKVEIK

FACS (MFI) [8]: 27300 MFI
B12: h140Hm13/h140Lm5 (antibody, V domains shown)
VH: EVQLVQSGAEVKKPGASVKVSCKASGYKFTNYVMSWVRQAPGQRLEWMGYINPYNDAIKYNEKFTGRVTITRDTSASTAYMELSSLRSEDTAVYYCAREGDFYANYGRLGFAYWGQGTLVTVSS
VL: DIQMTQSPSSLSASVGDRVTITCRASQDITNYLNWYQQKPGKAPKLLIYYTSRLHSGVPSRFSGSGSGTDYTFTISSLQPEDIATYFCQQGATFPRTFGGGTKVEIK

Binding to human red blood cells (MFI) [10]: 955 MFI | Binding to tumor cells (MFI) [11]: 34900 MFI | Kd (PD-L1): 1.02 nM | koff (PD-L1): 0.000163 s⁻¹ | kon (PD-L1): 159000 M⁻¹ s⁻¹ | Kd [12]: 65.7 nM | koff [12]: 0.00769 s⁻¹ | kon [12]: 117000 M⁻¹ s⁻¹
B13: anti-human CD47/PD-L1 bispecific antibody 2MW1531-m3 (bispecific antibody)
heavy 1: EVQLVQSGAEVKKPGASVKVSCKASGYKFTNYVMSWVRQAPGQRLEWMGYINPYNDAIKYNEKFTGRVTITRDTSASTAYMELSSLRSEDTAVYYCAREGDFYANYGRLGFAYWGQGTLVTVSSASTKGPSVFPLAPCSRSTSESTAALGCLVKDYFPEPVTVSWNSGALTSGVHTFPAVLQSSGLYSLSSVVTVPSSSLGTQTYTCNVDHKPSNTKVDKRVESKYGPPCPPCPAPEFLGGPSVFLFPPKPKDTLMISRTPEVTCVVVDVSQEDPEVQFNWYVDGVEVHNAKTKPREEQYNSTYRVVSVLTVLHQDWLNGKEYKCKVSNKGLPSSIEKTISKAKGQPREPQVYTLPPSQKEMTKNQVSLTCLVKGFYPSDIAVEWESNGQPENNYKTTPPVLDSDGSFFLYSKLTVDKSRWQEGNVFSCSVMHEALHNRYTQKSLSLSLGK
heavy 2: EVQLVQSGAEVKKPGATVKISCKVSGFNIKDIYMHWVQQAPGKGLEWMGRIDPANANTKYDPKFQDRVTITADTSTNTAYMELSSLRSEDTAVYYCASGQLGPLGFDYWGQGTTVTVSSASTKGPSVFPLAPCSRSTSESTAALGCLVKDYFPEPVTVSWNSGALTSGVHTFPAVLQSSGLYSLSSVVTVPSSSLGTQTYTCNVDHKPSNTKVDKRVESKYGPPCPPCPAPEFLGGPSVFLFPPKPKDTLMISRTPEVTCVVVDVSQEDPEVQFNWYVDGVEVHNAKTKPREEQYNSTYRVVSVLTVLHQDWLNGKEYKCKVSNKGLPSSIEKTISKAKGQPREPQVYTLPPSQEEMTKNQVSLTCLVKGFYPSDIAVEWESNGQPENNYKTTPPVLDSDGSFFLYSKLTVDKSRWQEGNVFSCSVMHEALHNHYTQESLSLSLGK
VL: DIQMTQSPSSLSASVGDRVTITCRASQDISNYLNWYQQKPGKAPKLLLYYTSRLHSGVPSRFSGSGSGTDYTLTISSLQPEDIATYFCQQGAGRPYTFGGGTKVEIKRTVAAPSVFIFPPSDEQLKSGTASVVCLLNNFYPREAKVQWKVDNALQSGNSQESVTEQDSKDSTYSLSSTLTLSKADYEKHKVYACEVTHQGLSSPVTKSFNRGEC
notes: Knobs-into-holes with a common light chain
